Experimental data: patent publication US20190270815A1 (WUXI BIOLOGICS IRELAND, published 2019)

What was measured:
[1] = biological target: T1, murine PD-1 (Sino biological) (murine, UniProt Q02242 25-167, limits assumed); experiment: ELISA on plate-coated murine PD-1
T1 sequence (looked up): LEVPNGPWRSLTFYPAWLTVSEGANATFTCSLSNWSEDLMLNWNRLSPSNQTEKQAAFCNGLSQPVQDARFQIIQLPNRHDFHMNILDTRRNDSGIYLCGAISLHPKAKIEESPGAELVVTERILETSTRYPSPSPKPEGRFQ
Procedure: 3.3.1 Cross-reactivity to cynomolgus PD-1 and murine PD-1: Cross-reactivity was measured by ELISA. Plates (Nunc) were coated with cynomolgus PD-1 (Sino Biological) and murine PD-1 (Sino biological) at 1 μg/ml overnight at 4° C. After blocking and washing, […] antibodies were added to the plates and incubated at room temperature for 1 h. The plates were then washed and subsequently incubated with secondary antibody goat anti rat IgG1 HRP (Bethyl) and goat anti rat IgG2b HRP (Bethyl) for 45 min. After washing, TMB substrate was added and the interaction was stopped by 2M HCl. The absorbance at 450 nm was read using a microplate reader (Molecular Device).

[2] = biological target: T2, hPD-1 ECD-His point mutant F 95 (to alanine) (human, UniProt Q15116 25-170); experiment: ELISA, antibody coated, His-tagged PD-1 mutant supernatant; fold change vs silent alanine substitutions
T2 construct: extracellular domain
Procedure: (§1) After interacting with the supernatant that contains quantified PD-1 mutant, HRP conjugated anti-His antibody (Rockland, Cat#200-303-382) was added as detection antibody. Absorbance was normalized according to the average of control mutants. After setting an additional cutoff to t4he binding fold change (<0.55), the final determined epitope residues were identified.

[3] = biological target: T3, hPD-1 ECD-His point mutant L 65 (to alanine) (human, UniProt Q15116 25-170); experiment: as above
T3 construct: extracellular domain
Procedure: as §1

[4] = biological target: T4, hPD-1 ECD-His point mutant M 108 (to alanine) (human, UniProt Q15116 25-170); experiment: as above
T4 construct: extracellular domain
Procedure: as §1

[5] = biological target: T5, hPD-1 ECD-His point mutant A 113 (to glycine) (human, UniProt Q15116 25-170); experiment: as above
T5 construct: extracellular domain
Procedure: as §1

[6] = biological target: T6, hPD-1 ECD-His point mutant N 49 (to alanine) (human, UniProt Q15116 25-170); experiment: as above
T6 construct: extracellular domain
Procedure: as §1

[7] = biological target: T7, hPD-1 ECD-His point mutant V 64 (to alanine) (human, UniProt Q15116 25-170); experiment: as above
T7 construct: extracellular domain
Procedure: as §1

[8] = biological target: T8, hPD-1 ECD-His point mutant C 123 (to alanine) (human, UniProt Q15116 25-170); experiment: as above
T8 construct: extracellular domain
Procedure: as §1

[9] = biological target: T9, hPD-1 ECD-His point mutant Q 133 (to alanine) (human, UniProt Q15116 25-170); experiment: as above
T9 construct: extracellular domain
Procedure: as §1

[10] = biological target: T10, hPD-1 ECD-His point mutant L 142 (to alanine) (human, UniProt Q15116 25-170); experiment: as above
T10 construct: extracellular domain
Procedure: as §1

[11] = biological target: T11, hPD-1 ECD-His point mutant F 82 (to alanine) (human, UniProt Q15116 25-170); experiment: as above
T11 construct: extracellular domain
Procedure: as §1

T2 sequence (Q15116 other isoform, or with tags, fused parts or gaps mutant): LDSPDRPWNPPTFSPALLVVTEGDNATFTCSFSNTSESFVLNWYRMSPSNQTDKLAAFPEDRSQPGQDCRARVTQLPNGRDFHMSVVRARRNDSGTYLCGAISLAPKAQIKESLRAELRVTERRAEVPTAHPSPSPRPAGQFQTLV
T3 sequence (Q15116 other isoform, or with tags, fused parts or gaps mutant): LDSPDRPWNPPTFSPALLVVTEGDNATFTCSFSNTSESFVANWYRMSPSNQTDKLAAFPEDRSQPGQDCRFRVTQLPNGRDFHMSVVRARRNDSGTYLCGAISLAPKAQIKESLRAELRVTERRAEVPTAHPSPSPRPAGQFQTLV
T9 sequence (Q15116 other isoform, or with tags, fused parts or gaps mutant): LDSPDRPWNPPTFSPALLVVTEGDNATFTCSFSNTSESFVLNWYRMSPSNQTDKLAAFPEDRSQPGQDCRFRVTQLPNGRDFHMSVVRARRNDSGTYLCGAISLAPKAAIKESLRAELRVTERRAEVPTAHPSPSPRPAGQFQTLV
T8 sequence (Q15116 other isoform, or with tags, fused parts or gaps mutant): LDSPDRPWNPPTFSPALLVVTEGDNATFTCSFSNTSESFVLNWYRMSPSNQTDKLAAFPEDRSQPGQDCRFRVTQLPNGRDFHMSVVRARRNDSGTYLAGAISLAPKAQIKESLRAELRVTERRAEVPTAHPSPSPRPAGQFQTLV
T4 sequence (Q15116 other isoform, or with tags, fused parts or gaps mutant): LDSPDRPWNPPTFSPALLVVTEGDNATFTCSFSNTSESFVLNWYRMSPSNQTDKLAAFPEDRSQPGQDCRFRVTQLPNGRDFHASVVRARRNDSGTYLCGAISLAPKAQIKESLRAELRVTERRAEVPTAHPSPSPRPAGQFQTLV
T10 sequence (Q15116 other isoform, or with tags, fused parts or gaps mutant): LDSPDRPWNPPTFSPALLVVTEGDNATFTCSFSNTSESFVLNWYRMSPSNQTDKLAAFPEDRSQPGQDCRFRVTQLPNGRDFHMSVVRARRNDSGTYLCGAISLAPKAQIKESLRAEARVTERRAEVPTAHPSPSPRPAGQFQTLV
T7 sequence (Q15116 other isoform, or with tags, fused parts or gaps mutant): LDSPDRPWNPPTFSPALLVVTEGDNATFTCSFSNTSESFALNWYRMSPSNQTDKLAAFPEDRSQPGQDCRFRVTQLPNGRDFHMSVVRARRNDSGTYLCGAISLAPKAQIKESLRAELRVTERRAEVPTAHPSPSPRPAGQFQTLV
T5 sequence (Q15116 other isoform, or with tags, fused parts or gaps mutant): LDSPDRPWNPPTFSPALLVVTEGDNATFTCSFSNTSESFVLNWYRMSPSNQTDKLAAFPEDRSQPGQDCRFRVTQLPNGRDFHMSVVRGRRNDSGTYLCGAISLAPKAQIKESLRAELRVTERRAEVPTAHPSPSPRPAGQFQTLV
T11 sequence (Q15116 other isoform, or with tags, fused parts or gaps mutant): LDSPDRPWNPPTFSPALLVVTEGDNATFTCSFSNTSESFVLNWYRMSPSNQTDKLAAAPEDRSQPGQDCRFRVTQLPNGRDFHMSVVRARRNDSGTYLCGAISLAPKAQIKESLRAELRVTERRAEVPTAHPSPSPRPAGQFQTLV
T6 sequence (Q15116 other isoform, or with tags, fused parts or gaps mutant): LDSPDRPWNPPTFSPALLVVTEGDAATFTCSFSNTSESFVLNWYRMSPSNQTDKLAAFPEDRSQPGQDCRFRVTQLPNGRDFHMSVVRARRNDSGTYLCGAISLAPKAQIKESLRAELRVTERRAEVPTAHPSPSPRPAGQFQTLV

B1: 1.103.11 hAb (antibody, V domains shown)
VH: QLQLQESGPGLVKPSETLTLTCTVSADSISSTTYYWVWIRQPPGKGLEWIGSISYSGSTYYNPSLKSRVTVSVDTSKNQFSLKLNSVAATDTALYYCARHLGYNGRYLPFDYWGQGTLVTVSS
VL: QSALTQPASVSGSPGQSITISCTGTSSDVGFYNYVSWYQQHPGKAPELMIYDVSNRPSGVSDRFSGSKSGNTASLTISGLQAEDEADYYCSSYTNISTWVFGGGTKLTVL
notes: fully human monoclonal antibody with a human constant region of IgG4 isotype
binding result [1]: no binding (tested: 1 g/ml antibodies (so in the source)) | fold change [2]: 0.63 | fold change [3]: 0.75 | fold change [4]: 0.56 | fold change [5]: 0.73 | fold change [6]: 0.73 | fold change [7]: 0.32 | fold change [8]: 0.46 | fold change [9]: 0.37 | fold change [10]: 0.44 | fold change [11]: 0.65
